Measured values as given in paper PMC5743061.
Each block holds one molecule with its values, some of them ahead of it.

Legend:
CHC22Δx9 (human) = CHC22Δx9 (human) (UniProt P53675); assay: deep-etch electron microscopy; purified CHC isoforms adsorbed on mica flakes, quick-frozen, freeze-fractured, deep-etched, platinum-replicated; CHC22Δx9 released in high Tris buffer pH 7.0, CHC17 released in HEPES buffer pH 7.0
[1] = molecular target: CHC17 clathrin heavy chain (human (endogenous in HeLa)) (UniProt Q00610)
[2] = molecular target: CHC22 clathrin heavy chain (human (endogenous in HeLa)) (UniProt P53675)
[3] = molecular target: T1, CHC17 clathrin heavy chain (human (endogenous in HeLa)), Q00610; assay: deep-etch electron microscopy; purified CHC isoforms adsorbed on mica flakes, quick-frozen, freeze-fractured, deep-etched, platinum-replicated; CHC22Δx9 released in high Tris buffer pH 7.0, CHC17 released in HEPES buffer pH 7.0; conditions: remark: other sources report otherwise
T1 chain: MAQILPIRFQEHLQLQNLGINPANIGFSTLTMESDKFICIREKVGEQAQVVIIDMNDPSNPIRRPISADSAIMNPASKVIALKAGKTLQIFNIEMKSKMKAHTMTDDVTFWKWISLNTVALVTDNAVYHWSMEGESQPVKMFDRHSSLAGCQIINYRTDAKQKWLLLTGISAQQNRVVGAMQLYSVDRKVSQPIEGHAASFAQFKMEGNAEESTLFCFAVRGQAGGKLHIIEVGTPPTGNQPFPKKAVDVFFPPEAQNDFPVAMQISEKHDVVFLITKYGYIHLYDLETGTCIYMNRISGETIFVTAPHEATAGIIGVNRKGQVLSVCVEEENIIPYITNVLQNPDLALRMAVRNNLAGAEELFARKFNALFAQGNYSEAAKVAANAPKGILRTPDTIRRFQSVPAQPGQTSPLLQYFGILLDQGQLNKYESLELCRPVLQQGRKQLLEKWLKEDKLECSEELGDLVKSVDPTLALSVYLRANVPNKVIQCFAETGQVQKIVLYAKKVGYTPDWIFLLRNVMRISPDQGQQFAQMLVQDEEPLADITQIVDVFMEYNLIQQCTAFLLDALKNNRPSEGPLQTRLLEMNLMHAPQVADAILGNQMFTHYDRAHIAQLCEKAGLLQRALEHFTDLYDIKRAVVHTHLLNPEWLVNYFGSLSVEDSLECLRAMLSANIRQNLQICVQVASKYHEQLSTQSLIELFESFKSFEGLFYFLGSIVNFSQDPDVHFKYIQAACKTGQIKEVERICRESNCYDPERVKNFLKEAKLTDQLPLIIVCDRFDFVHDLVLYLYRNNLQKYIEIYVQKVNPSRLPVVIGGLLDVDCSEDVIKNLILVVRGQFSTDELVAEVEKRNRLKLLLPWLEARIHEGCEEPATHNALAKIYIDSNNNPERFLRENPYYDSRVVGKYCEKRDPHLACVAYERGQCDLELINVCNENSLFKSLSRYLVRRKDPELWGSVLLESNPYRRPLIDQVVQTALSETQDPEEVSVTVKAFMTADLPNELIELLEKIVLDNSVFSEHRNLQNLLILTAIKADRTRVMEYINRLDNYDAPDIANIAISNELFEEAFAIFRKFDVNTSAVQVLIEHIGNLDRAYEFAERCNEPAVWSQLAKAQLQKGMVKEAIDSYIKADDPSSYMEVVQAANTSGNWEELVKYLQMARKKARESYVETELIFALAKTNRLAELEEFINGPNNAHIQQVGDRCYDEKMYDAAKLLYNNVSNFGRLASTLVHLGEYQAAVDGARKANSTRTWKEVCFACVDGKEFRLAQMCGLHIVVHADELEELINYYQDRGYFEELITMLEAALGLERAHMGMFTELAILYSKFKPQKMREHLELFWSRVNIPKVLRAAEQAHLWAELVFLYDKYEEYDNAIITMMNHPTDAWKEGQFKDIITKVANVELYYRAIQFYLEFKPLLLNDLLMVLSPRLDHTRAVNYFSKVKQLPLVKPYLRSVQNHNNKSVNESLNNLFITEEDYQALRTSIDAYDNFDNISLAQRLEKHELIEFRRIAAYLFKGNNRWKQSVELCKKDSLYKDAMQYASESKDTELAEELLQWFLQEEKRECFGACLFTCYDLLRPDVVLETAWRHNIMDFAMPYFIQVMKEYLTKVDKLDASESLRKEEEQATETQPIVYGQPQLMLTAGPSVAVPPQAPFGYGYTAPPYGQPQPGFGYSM

UniProt P53675, sequence (P53675 whole entry, canonical isoform): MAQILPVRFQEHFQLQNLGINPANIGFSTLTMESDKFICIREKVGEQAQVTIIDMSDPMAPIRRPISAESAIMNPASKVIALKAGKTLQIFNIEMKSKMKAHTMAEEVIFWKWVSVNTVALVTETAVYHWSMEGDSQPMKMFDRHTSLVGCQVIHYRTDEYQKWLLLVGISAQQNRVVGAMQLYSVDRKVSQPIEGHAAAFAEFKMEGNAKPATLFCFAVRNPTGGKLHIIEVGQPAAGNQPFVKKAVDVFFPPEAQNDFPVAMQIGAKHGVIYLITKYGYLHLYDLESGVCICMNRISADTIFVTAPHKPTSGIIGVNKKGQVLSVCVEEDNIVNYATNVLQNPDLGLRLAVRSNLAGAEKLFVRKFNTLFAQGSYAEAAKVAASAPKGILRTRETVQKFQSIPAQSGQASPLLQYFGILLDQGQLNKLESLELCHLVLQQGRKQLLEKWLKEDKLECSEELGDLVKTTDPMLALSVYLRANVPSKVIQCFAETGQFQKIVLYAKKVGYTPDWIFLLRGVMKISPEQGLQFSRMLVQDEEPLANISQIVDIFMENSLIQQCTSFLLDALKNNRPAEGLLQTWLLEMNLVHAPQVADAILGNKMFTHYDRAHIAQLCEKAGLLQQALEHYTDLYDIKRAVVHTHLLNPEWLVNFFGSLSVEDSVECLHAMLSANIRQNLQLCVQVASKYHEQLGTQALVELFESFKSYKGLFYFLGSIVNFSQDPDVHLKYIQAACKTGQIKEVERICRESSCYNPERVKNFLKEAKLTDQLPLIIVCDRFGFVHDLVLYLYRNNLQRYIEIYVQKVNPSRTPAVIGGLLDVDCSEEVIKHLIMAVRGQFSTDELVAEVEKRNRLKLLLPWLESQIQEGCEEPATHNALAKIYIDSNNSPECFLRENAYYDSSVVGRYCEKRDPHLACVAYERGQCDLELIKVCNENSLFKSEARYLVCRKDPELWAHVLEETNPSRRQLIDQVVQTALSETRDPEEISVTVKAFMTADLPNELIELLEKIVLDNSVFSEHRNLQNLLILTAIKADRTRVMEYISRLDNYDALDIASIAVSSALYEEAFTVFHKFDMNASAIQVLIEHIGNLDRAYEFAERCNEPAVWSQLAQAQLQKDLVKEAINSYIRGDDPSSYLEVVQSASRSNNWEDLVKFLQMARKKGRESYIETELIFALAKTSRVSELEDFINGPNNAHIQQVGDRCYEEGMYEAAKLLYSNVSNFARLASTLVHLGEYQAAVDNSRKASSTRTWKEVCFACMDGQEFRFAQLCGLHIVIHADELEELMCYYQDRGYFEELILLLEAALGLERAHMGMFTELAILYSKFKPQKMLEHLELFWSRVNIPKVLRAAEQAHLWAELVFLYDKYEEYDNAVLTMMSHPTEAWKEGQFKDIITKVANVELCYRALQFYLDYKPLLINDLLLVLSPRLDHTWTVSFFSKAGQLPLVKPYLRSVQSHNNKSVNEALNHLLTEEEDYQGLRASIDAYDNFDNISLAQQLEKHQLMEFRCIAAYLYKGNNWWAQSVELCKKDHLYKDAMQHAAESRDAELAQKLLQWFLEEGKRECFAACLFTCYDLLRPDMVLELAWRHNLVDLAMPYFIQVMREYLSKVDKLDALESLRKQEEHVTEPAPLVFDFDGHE

stoichiometry N (CHC22Δx9 (human)): 3
Molecule: CHC22Δx9 (from UniProt P53675 1-1640) (natural protein)

release of CHC from HeLa CCVs into the supernatant, S/(S+P) by immunoblot, with uncoating complex (Hsc70 1.3 μM + GST-auxilin(401–910) 0.13 μM) plus ATP 0.5 mM, 10 min, 37 °C [1]: > 50% | release of CHC from HeLa CCVs into the supernatant, S/(S+P) by immunoblot, with uncoating complex (Hsc70 1.3 μM + GST-auxilin(401–910) 0.13 μM) plus ATP 0.5 mM, 10 min, 37 °C [2]: 16%
Molecule: 70-kDa heat-shock cognate protein (Hsc70) (from UniProt P63018 1-646) (enzyme)

stoichiometry N [3]: 3
B1: CHC17 clathrin heavy chain, Q00610 1-1675 (natural protein)
chain: MAQILPIRFQEHLQLQNLGINPANIGFSTLTMESDKFICIREKVGEQAQVVIIDMNDPSNPIRRPISADSAIMNPASKVIALKAGKTLQIFNIEMKSKMKAHTMTDDVTFWKWISLNTVALVTDNAVYHWSMEGESQPVKMFDRHSSLAGCQIINYRTDAKQKWLLLTGISAQQNRVVGAMQLYSVDRKVSQPIEGHAASFAQFKMEGNAEESTLFCFAVRGQAGGKLHIIEVGTPPTGNQPFPKKAVDVFFPPEAQNDFPVAMQISEKHDVVFLITKYGYIHLYDLETGTCIYMNRISGETIFVTAPHEATAGIIGVNRKGQVLSVCVEEENIIPYITNVLQNPDLALRMAVRNNLAGAEELFARKFNALFAQGNYSEAAKVAANAPKGILRTPDTIRRFQSVPAQPGQTSPLLQYFGILLDQGQLNKYESLELCRPVLQQGRKQLLEKWLKEDKLECSEELGDLVKSVDPTLALSVYLRANVPNKVIQCFAETGQVQKIVLYAKKVGYTPDWIFLLRNVMRISPDQGQQFAQMLVQDEEPLADITQIVDVFMEYNLIQQCTAFLLDALKNNRPSEGPLQTRLLEMNLMHAPQVADAILGNQMFTHYDRAHIAQLCEKAGLLQRALEHFTDLYDIKRAVVHTHLLNPEWLVNYFGSLSVEDSLECLRAMLSANIRQNLQICVQVASKYHEQLSTQSLIELFESFKSFEGLFYFLGSIVNFSQDPDVHFKYIQAACKTGQIKEVERICRESNCYDPERVKNFLKEAKLTDQLPLIIVCDRFDFVHDLVLYLYRNNLQKYIEIYVQKVNPSRLPVVIGGLLDVDCSEDVIKNLILVVRGQFSTDELVAEVEKRNRLKLLLPWLEARIHEGCEEPATHNALAKIYIDSNNNPERFLRENPYYDSRVVGKYCEKRDPHLACVAYERGQCDLELINVCNENSLFKSLSRYLVRRKDPELWGSVLLESNPYRRPLIDQVVQTALSETQDPEEVSVTVKAFMTADLPNELIELLEKIVLDNSVFSEHRNLQNLLILTAIKADRTRVMEYINRLDNYDAPDIANIAISNELFEEAFAIFRKFDVNTSAVQVLIEHIGNLDRAYEFAERCNEPAVWSQLAKAQLQKGMVKEAIDSYIKADDPSSYMEVVQAANTSGNWEELVKYLQMARKKARESYVETELIFALAKTNRLAELEEFINGPNNAHIQQVGDRCYDEKMYDAAKLLYNNVSNFGRLASTLVHLGEYQAAVDGARKANSTRTWKEVCFACVDGKEFRLAQMCGLHIVVHADELEELINYYQDRGYFEELITMLEAALGLERAHMGMFTELAILYSKFKPQKMREHLELFWSRVNIPKVLRAAEQAHLWAELVFLYDKYEEYDNAIITMMNHPTDAWKEGQFKDIITKVANVELYYRAIQFYLEFKPLLLNDLLMVLSPRLDHTRAVNYFSKVKQLPLVKPYLRSVQNHNNKSVNESLNNLFITEEDYQALRTSIDAYDNFDNISLAQRLEKHELIEFRRIAAYLFKGNNRWKQSVELCKKDSLYKDAMQYASESKDTELAEELLQWFLQEEKRECFGACLFTCYDLLRPDVVLETAWRHNIMDFAMPYFIQVMKEYLTKVDKLDASESLRKEEEQATETQPIVYGQPQLMLTAGPSVAVPPQAPFGYGYTAPPYGQPQPGFGYSM
